Assay results published in US20150276749A1 (KONICA MINOLTA, published 2015).

What was measured:
[1] = target: T1, soluble-type human DSG3-mouse IgG2aFc fusion protein (human; mouse, UniProt P32926 50-616); experiment: sandwich ELISA, luminescence over blank; immobilized DF151, detection DF151; antigen 25000 pg/mL
T1 construct: also called human desmoglein 3; desmoglein 3 standard; not shown: mouse IgG2a Fc, printed 'mouse IgG2aFc' and 'mouse IgG2 constant region'
T1 sequence: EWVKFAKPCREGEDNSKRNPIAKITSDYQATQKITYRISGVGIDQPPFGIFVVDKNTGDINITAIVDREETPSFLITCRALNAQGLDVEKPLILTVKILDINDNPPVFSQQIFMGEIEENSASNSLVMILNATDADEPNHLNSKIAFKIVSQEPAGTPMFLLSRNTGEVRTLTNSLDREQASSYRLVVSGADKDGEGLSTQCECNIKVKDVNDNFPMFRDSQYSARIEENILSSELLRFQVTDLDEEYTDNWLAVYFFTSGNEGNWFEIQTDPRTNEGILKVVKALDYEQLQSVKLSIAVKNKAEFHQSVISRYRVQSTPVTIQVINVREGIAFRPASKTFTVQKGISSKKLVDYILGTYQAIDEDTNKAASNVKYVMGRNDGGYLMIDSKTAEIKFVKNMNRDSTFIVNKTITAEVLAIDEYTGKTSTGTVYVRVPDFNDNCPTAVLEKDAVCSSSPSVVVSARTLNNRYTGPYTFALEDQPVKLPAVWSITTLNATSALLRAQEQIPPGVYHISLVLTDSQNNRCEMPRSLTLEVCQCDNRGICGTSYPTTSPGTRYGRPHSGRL
Description: (§1) Subsequently, the antigen solutions having the above-described concentrations were each added to the plate in an amount of 50 μL/well, and the plate was incubated at room temperature for 1 hour. Then, the antigen solution was removed, and the plate was washed with 0.05% Tween 20-PBS three times. Thereafter, the 1-μg/mL biotinylated antibody solution was added in an amount of 50 μL/well, and the plate was incubated at room temperature for 1 hour.
(§2) Then, after removing the streptavidin-HRP solution and washing the plate with 0.05% Tween 20-PBS three times, a substrate solution (SuperSignal ELISA Femto Maximum Sensitivity Substrate (registered trademark); Pierce Biotechnology, Inc.) was added in an amount of 100 μL/well. One minute thereafter, the luminescence intensity was measured using a luminometer, Fluoroskan Ascent FL (trade name, Thermo Electron Corporation).
(§3) The numerical values shown in Table 1 represent the minimum values of the antigen solution concentration having an S/N ratio of higher than 2 (hereinafter, referred to as “detection limit concentration”) and the unit of the numerical values is pg/mL. The S/N ratio was determined by dividing the luminescence intensity at the respective antigen solution concentrations ([…]) by the luminescence intensity of an antigen-free blank antigen solution (0 μg/mL).

[2] = target: T1, soluble-type human DSG3-mouse IgG2aFc …; experiment: sandwich ELISA, luminescence over blank; immobilized DF151, detection MAB1720; antigen 10 pg/mL
Description: as §1, §2
(§4) The numerical values shown in Table 1 represent the minimum values of the antigen solution concentration having an S/N ratio of higher than 2 (hereinafter, referred to as “detection limit concentration”) and the unit of the numerical values is pg/mL. […]

[3] = target: T1, soluble-type human DSG3-mouse IgG2aFc …; experiment: sandwich ELISA, luminescence over blank; immobilized DF151, detection D219-3; antigen 25000 pg/mL
Description: as §1, §2, §3

[4] = target: T1, soluble-type human DSG3-mouse IgG2aFc …; experiment: SPFS sandwich; immobilized DF151, detection D219-3; antigen 1,000 pg/mL (µg/mL in the source)
Description: (§5) Once again, a Tris-buffered saline (TBS) containing 0.05% by mass of Tween 20 was fed and circulated in the flow path for 10 minutes to wash the flow path. Then, with the flow path being filled with PBS buffer (pH 7.4), the assay area was irradiated with laser light (640 nm, 40 μW) from the back side of the metal thin films, and the fluorescence intensity was measured using a photomultiplier tube (PMT) arranged above the assay area. The thus measured value was defined as “signal” (S) at a desmoglein 3 concentration of 100 μg/mL.
(§6) On another front, the fluorescence intensity was also measured by the same procedures as described above, except that a PBS solution containing no desmoglein 3 (0 μg/mL) was fed in place of the PBS solution containing 100 μg/mL of desmoglein 3. The thus measured value was defined as “noise” (N).
(§7) Further, the fluorescence intensity was measured by the same procedures as described above, except that the desmoglein 3 concentration of the fed PBS solution was changed to 10,000 μg/mL, 5,000 μg/mL, 1,000 μg/mL, 200 μg/mL, 50 μg/mL, 10 μg/mL, 3.16 μg/mL, 1 μg/mL, 0.316 μg/mL, 0.1 μg/mL and 0.031 μg/mL. The thus measured values were each defined as “signal” (S) at the respective concentrations.

[5] = target: T1, soluble-type human DSG3-mouse IgG2aFc …; experiment: sandwich ELISA, luminescence over blank; immobilized DF151, detection D219-3; antigen 40 pg/mL
Description: as §1, §2, §3

[6] = target: T1, soluble-type human DSG3-mouse IgG2aFc …; experiment: sandwich ELISA, luminescence over blank; immobilized DF151, detection DF151; antigen 1 pg/mL
Description: as §1, §2, §3

[7] = target: T1, soluble-type human DSG3-mouse IgG2aFc …; experiment: sandwich ELISA, luminescence over blank; immobilized DF151, detection MAB1720; antigen 1000 pg/mL
Description: as §1, §2, §3

[8] = target: T1, soluble-type human DSG3-mouse IgG2aFc …; experiment: sandwich ELISA, luminescence over blank; immobilized DF151, detection DF151; antigen 40 pg/mL
Description: as §1, §2, §3

[9] = target: T1, soluble-type human DSG3-mouse IgG2aFc …; experiment: SPFS sandwich; immobilized DF151, detection MAB1720; antigen 1,000 pg/mL (µg/mL in the source)
Description: as §5, §6, §7

[10] = target: T1, soluble-type human DSG3-mouse IgG2aFc …; experiment: sandwich ELISA, luminescence over blank; immobilized DF151, detection D219-3; antigen 1 pg/mL
Description: as §1, §2, §4

[11] = target: T1, soluble-type human DSG3-mouse IgG2aFc …; experiment: sandwich ELISA, luminescence over blank; immobilized DF151, detection DF151; antigen 200 pg/mL
Description: as §1, §2, §3

B1: DF151 (DF151[I] antibody) (antibody, mouse IgG2b, kappa, V domains shown)
VH: EVQLQQSGPELVKPGASVKISCKASGYSFTAYYMHWVKQSPEKCLEWIGQINPSTGGTTYNQKFKAKATLTVDKSSSTAYMQLKSLTSEDSAVYYCARWGDSWGQGTTLTVSS
VL: DIVLTQSPASLAVSLGQSVTISCRASESVEYYGTSLMQWYQQKPGQPPKLLIYGASDVESGVPARFSGSGSGTDFSLNIHPVEEDDIAMYFCQQSRKVPYTFGSGTKLEIKR
notes: Complete antibody; Biotinylated as detection antibody in ELISA; labeled with Alexa Fluor 647 as detection antibody in SPFS; also called DF151 antibody
Question: Which results are given for B1?
Answer: S/N ratio [1]: 55.2; S/N ratio [2]: 1.1; S/N ratio [3]: 50.3; S/N ratio [4]: 24.4; S/N ratio [5]: 0.8; S/N ratio [6]: 0.9; S/N ratio [7]: 4.1; S/N ratio [8]: 0.9; S/N ratio [9]: 60.8; S/N ratio [10]: 0.8; S/N ratio [11]: 1.2
